Results on 28 molecules are retold here after publication PMC314469, “Protein Interaction Networks by Proteome Peptide Scanning” (PLoS Biology, 2004).

First the molecules themselves.
T1: amphyphisin SH3 (AMPH_HUMAN), P49418
T1 chain: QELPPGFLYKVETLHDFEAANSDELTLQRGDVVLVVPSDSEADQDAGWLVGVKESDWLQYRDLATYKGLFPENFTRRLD

One assay addresses T1, amphyphisin SH3 (AMPH_HUMAN), P49418. Description: SPOT array.
QDLRPLRPPAQTPQ [O00456 524-538]: the normalised SPOT signal, Boehringer light units (BLU); mean over the file's lines of this peptide came to 266.

With QFPKLDRPTKQMRE [P78524 721-734], the normalised SPOT signal, Boehringer light units (BLU); mean over the file's lines of this peptide was 116.

In the case of QAVHLPRPPRVLGL [Q9H960 30-43], the normalised SPOT signal, Boehringer light units (BLU); mean over the file's lines of this peptide is 1920.

In turn, QEALPMRPAREGEL [Q9Y6J9 86-99] displayed a normalised SPOT signal, Boehringer light units (BLU); mean over the file's lines of this peptide of 2910.

Take ASSSPKRPSVERSN [O75764 109-122]: the normalised SPOT signal, Boehringer light units (BLU); mean over the file's lines of this peptide is 12.2.

QGPAPRRPTTDQIS [O43566 535-548] returned a normalised SPOT signal, Boehringer light units (BLU); mean over the file's lines of this peptide of 36.6.

QDSPPPKPPRTRSS [Q05209 329-343] showed a normalised SPOT signal, Boehringer light units (BLU); mean over the file's lines of this peptide of 20600.

As for QSDSIRRPLRPGQY [O75878 30-43], the normalised SPOT signal, Boehringer light units (BLU); mean over the file's lines of this peptide amounted to 844.

In turn, QGGRPHRPPQGQPP [Q04118 294-308] returned a normalised SPOT signal, Boehringer light units (BLU); mean over the file's lines of this peptide of 37.1.

Turning to QGASIRRPSSGNAS [Q13267 138-151], the normalised SPOT signal, Boehringer light units (BLU); mean over the file's lines of this peptide was determined as 33.6.

In turn, QGPAPRRPWERGDG [P16066 284-297] showed a normalised SPOT signal, Boehringer light units (BLU); mean over the file's lines of this peptide of 35.7.

QAATPRRPAAISRP [Q96E55 116-129] returned a normalised SPOT signal, Boehringer light units (BLU); mean over the file's lines of this peptide of 178.

Turning to QALYFSRPFREKVL [O75317 40-53], the normalised SPOT signal, Boehringer light units (BLU); mean over the file's lines of this peptide stood at 1060.

On to QDAYLSRPGRALAH [Q9UIW2 291-304], for which the normalised SPOT signal, Boehringer light units (BLU); mean over the file's lines of this peptide is 165.

QAGFPRRPPPRGTR [Q9UER3 87-101] registered a normalised SPOT signal, Boehringer light units (BLU); mean over the file's lines of this peptide of 6450.

Consider QEDSPRKPPNFPVP [Q8TEE1 827-841], for which the normalised SPOT signal, Boehringer light units (BLU); mean over the file's lines of this peptide was 97.6.

In turn, QASRFQRPGRRMSE [Q9BZ71 507-520] returned a normalised SPOT signal, Boehringer light units (BLU); mean over the file's lines of this peptide of 4120.

Turning to ASSRPGRPPKRTQS [Q9UI36 281-295], the normalised SPOT signal, Boehringer light units (BLU); mean over the file's lines of this peptide was 950.

On to QAQLPPKPPAWAWA [P54098 158-172], for which the normalised SPOT signal, Boehringer light units (BLU); mean over the file's lines of this peptide turned out to be 38.5.

For the molecule QGSAPLRPFRSGEG [Q9H6J3 73-86], the normalised SPOT signal, Boehringer light units (BLU); mean over the file's lines of this peptide was 7120.

For the molecule QAVFPFKPPQRIEA [Q9Y6X3 59-73], the normalised SPOT signal, Boehringer light units (BLU); mean over the file's lines of this peptide was 80.1.

For QELLPGKPPKSRVL [Q8TC00 766-780], the normalised SPOT signal, Boehringer light units (BLU); mean over the file's lines of this peptide is 49.9.

On to QGAGPSRPPTPGRN [O95398 328-342], for which the normalised SPOT signal, Boehringer light units (BLU); mean over the file's lines of this peptide came out at 1010.

The molecule QGIEFLRPLKTTTP [P42357 562-575] gave a normalised SPOT signal, Boehringer light units (BLU); mean over the file's lines of this peptide of 31.9.

QAGPPSRPPRYSSS [AAH32298 59-73]: the normalised SPOT signal, Boehringer light units (BLU); mean over the file's lines of this peptide was found to be 13600.

Regarding QALYFSRPFRENVL [Q9H9T8 51-64], the normalised SPOT signal, Boehringer light units (BLU); mean over the file's lines of this peptide stood at 2250.

On to QAVLPPRPPKVLEF [Q9NWT4 356-370], for which the normalised SPOT signal, Boehringer light units (BLU); mean over the file's lines of this peptide is 346.

Molecule QAGGPQRPGRVVSL [Q13671 45-58] showed a normalised SPOT signal, Boehringer light units (BLU); mean over the file's lines of this peptide of 4280.

In another assay the target is endophilin SH3 (SH3G2_HUMAN), Q99962. The experiment in a line: SPOT array.
For the molecule QDLRPLRPPAQTPQ [O00456 524-538], the normalised SPOT signal, Boehringer light units (BLU); mean over the file's lines of this peptide is 154.

Molecule QFPKLDRPTKQMRE [P78524 721-734] displayed a normalised SPOT signal, Boehringer light units (BLU); mean over the file's lines of this peptide of 133.

Molecule QAVHLPRPPRVLGL [Q9H960 30-43] gave a normalised SPOT signal, Boehringer light units (BLU); mean over the file's lines of this peptide of 178.

As to QEALPMRPAREGEL [Q9Y6J9 86-99], the normalised SPOT signal, Boehringer light units (BLU); mean over the file's lines of this peptide came to 70.9.

The molecule ASSSPKRPSVERSN [O75764 109-122] yielded a normalised SPOT signal, Boehringer light units (BLU); mean over the file's lines of this peptide of 190.

QGPAPRRPTTDQIS [O43566 535-548]: the normalised SPOT signal, Boehringer light units (BLU); mean over the file's lines of this peptide came out at 6570.

QDSPPPKPPRTRSS [Q05209 329-343] showed a normalised SPOT signal, Boehringer light units (BLU); mean over the file's lines of this peptide of 2900.

In the case of QSDSIRRPLRPGQY [O75878 30-43], the normalised SPOT signal, Boehringer light units (BLU); mean over the file's lines of this peptide is 378.

In turn, QGGRPHRPPQGQPP [Q04118 294-308] showed a normalised SPOT signal, Boehringer light units (BLU); mean over the file's lines of this peptide of 51.3.

Molecule QGASIRRPSSGNAS [Q13267 138-151] displayed a normalised SPOT signal, Boehringer light units (BLU); mean over the file's lines of this peptide of 124.

In the case of QGPAPRRPWERGDG [P16066 284-297], the normalised SPOT signal, Boehringer light units (BLU); mean over the file's lines of this peptide came to 0.

QAATPRRPAAISRP [Q96E55 116-129] yielded a normalised SPOT signal, Boehringer light units (BLU); mean over the file's lines of this peptide of 1370.

In turn, QALYFSRPFREKVL [O75317 40-53] returned a normalised SPOT signal, Boehringer light units (BLU); mean over the file's lines of this peptide of 226.

In turn, QDAYLSRPGRALAH [Q9UIW2 291-304] gave a normalised SPOT signal, Boehringer light units (BLU); mean over the file's lines of this peptide of 219.

Molecule QAGFPRRPPPRGTR [Q9UER3 87-101] gave a normalised SPOT signal, Boehringer light units (BLU); mean over the file's lines of this peptide of 7340.

In the case of QEDSPRKPPNFPVP [Q8TEE1 827-841], the normalised SPOT signal, Boehringer light units (BLU); mean over the file's lines of this peptide was found to be 142.

Turning to QASRFQRPGRRMSE [Q9BZ71 507-520], the normalised SPOT signal, Boehringer light units (BLU); mean over the file's lines of this peptide is 445.

As to ASSRPGRPPKRTQS [Q9UI36 281-295], the normalised SPOT signal, Boehringer light units (BLU); mean over the file's lines of this peptide came out at 5690.

On to QAQLPPKPPAWAWA [P54098 158-172], for which the normalised SPOT signal, Boehringer light units (BLU); mean over the file's lines of this peptide stood at 119.

On to QGSAPLRPFRSGEG [Q9H6J3 73-86], for which the normalised SPOT signal, Boehringer light units (BLU); mean over the file's lines of this peptide was determined as 1840.

With QAVFPFKPPQRIEA [Q9Y6X3 59-73], the normalised SPOT signal, Boehringer light units (BLU); mean over the file's lines of this peptide was determined as 62.6.

As to QELLPGKPPKSRVL [Q8TC00 766-780], the normalised SPOT signal, Boehringer light units (BLU); mean over the file's lines of this peptide is 156.

The molecule QGAGPSRPPTPGRN [O95398 328-342] gave a normalised SPOT signal, Boehringer light units (BLU); mean over the file's lines of this peptide of 2220.

The molecule QGIEFLRPLKTTTP [P42357 562-575] had a normalised SPOT signal, Boehringer light units (BLU); mean over the file's lines of this peptide of 83.1.

Molecule QAGPPSRPPRYSSS [AAH32298 59-73] displayed a normalised SPOT signal, Boehringer light units (BLU); mean over the file's lines of this peptide of 7540.

For QALYFSRPFRENVL [Q9H9T8 51-64], the normalised SPOT signal, Boehringer light units (BLU); mean over the file's lines of this peptide turned out to be 224.

Consider QAVLPPRPPKVLEF [Q9NWT4 356-370], for which the normalised SPOT signal, Boehringer light units (BLU); mean over the file's lines of this peptide came to 1570.

QAGGPQRPGRVVSL [Q13671 45-58] showed a normalised SPOT signal, Boehringer light units (BLU); mean over the file's lines of this peptide of 556.
